Common to all, as to type: cell-based, Saccharomyces cerevisiae
The test system of test [1] is Hua2. Nature of the test: Deep mutational scanning of Abp1 SH3, Abp1-Hua2 DHFR-PCA (DMS score). As to conditions: Abp1-Hua2 DHFR-PCA; WT = 0; Fig. S3C-D. The procedure, abridged: (§1)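 Each SH3 position is mutated to all possible codons within endogenous ABP1; the pooled strains are crossed to DHFR F[3]-tagged partners, diploids are enriched in NAT/HPH media, and two 72 h complementation selections at 30 °C follow, with Illumina counts of the locus yielding the score.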

The test system of test [2] is Lsb3. Nature of the test: Deep mutational scanning of Abp1 SH3, Abp1-Lsb3 DHFR-PCA (DMS score). As to conditions: Abp1-Lsb3 DHFR-PCA; WT = 0; Fig. S3C-D. The procedure, abridged: as §1
In test [3] the test system is PPIs identified as affected by the SH3 domain deletions. As to the kind of experiment: Liquid DHFR-PCA low-throughput validation of PPIs affected by SH3 deletion (Fig. S1D-E). As to conditions: Deletedscore/WTscore. The procedure, abridged: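 Growth at 30 °C was tracked by OD each 15 min over 72 h in agar-free PCA selection medium, starting at 0.1 OD. Cells were diploids selected after mating, first cultured 48 h with NAT and HPH in synthetic complete MSG medium, pH 6.0.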

B1: WT (protein, UniProt P15891 2-592, looked up)
Actin-binding protein: ALEPIDYTTHSREIDAEYLKIVRGSDPDTTWLIISPNAKKEYEPESTGSSFHDFLQLFDETKVQYGLARVSPPGSDVEKIIIIGWCPDSAPLKTRASFAANFAAVANNLFKGYHVQVTARDEDDLDENELLMKISNAAGARYSIQTSSKQQGKASTPPVKKSFTPSKSPAPVSKKEPVKTPSPAPAAKISSRVNDNNDDDDWNEPELKERDFDQAPLKPNQSSYKPIGKIDLQKVIAEEKAKEDPRLVQKPTAAGSKIDPSSDIANLKNESKLKRDSEFNSFLGTTKPPSMTESSLKNDDDKVIKGFRNEKSPAQLWAERKAKQNSGNAETKAEAPKPEVPEDEPEGEPDVKDLKSKFEGLAASEKEEEEMENKFAPPPKKSEPTIISPKPFSKPQEPVKAEEAEQPKTDYKKIGNPLPGMHIEADNEEEPEENDDDWDDDEDEAAQPPLPSRNVASGAPVQKEEPEQEEIAPSLPSRNSIPAPKQEEAPEQAPEEEIEEEAEEAAPQLPSRSSAAPPPPPRRATPEKKPKENPWATAEYDYDAAEDNELTFVENDKIINIEFVDDDWWLGELEKDGSKGLFPSNYVSLGN
Regarding B1, the “DMS score Hua2” value in test [1] was found to be 0. Besides, in test [2], the “DMS score Lsb3” value was 0.

B2: SHO1 (protein, UniProt P40073 1-367, looked up)
High osmolarity signaling …: MSISSKIRPTPRKPSRMATDHSFKMKKFYADPFAISSISLAIVSWVIAIGGSISSASTNESFPRFTWWGIVYQFLIICSLMLFYCFDLVDHYRIFITTSIAVAFVYNTNSATNLVYADGPKKAAASAGVILLSIINLIWILYYGGDNASPTNRWIDSFSIKGIRPSPLENSLHRARRRGNRNTTPYQNNVYNDAIRDSGYATQFDGYPQQQPSHTNYVSSTALAGFENTQPNTSEAVNLHLNTLQQRINSASNAKETNDNSNNQTNTNIGNTFDTDFSNGNTETTMGDTLGLYSDIGDDNFIYKAKALYPYDADDDDAYEISFEQNEILQVSDIEGRWWKARRANGETGIIPSNYVQLIDGPEEMHR
Consider B2, for which the figures for the Ratio in test [3] (prey YJL128C_1) and in test [3] (prey YOR042W_1) were 0.6814 and 0.502, respectively.

The values are drawn from article PMC7954794, “Protein context shapes the specificity of SH3 domain-mediated interactions in vivo” (Nature Communications, 2021).
